Biological target: thrombin (Homo sapiens, UniProt P00734)
Experiment: In vitro thrombin inhibition assay (coagulation time) as in Example 2, with re-use of isolated Sepharose-hirudin
Type: biochemical
Conditions: isolated from treated plasma, washed with 1 to 1.5 M NaCl, employed again
Protocol: Female and male Wistar rats with a body weight of about 300 g are anesthetized with ethylurethane (1.5 g/kg i.p.). 1000 AT-U/kg of a hirudin derivative or authentic `Leu-Thr-hirudin`, which has been dissolved in physiological saline, are administered i.v. to the rats. A catheter is implanted in the carotid of the animals for blood sampling. Blood is taken from the animals and treated with citrate for the determination of anti-thrombin activity. 0.1 ml of the blood treated in this way is mixed with 0.2 ml of Tris/HCl buffer (0.1 mol/1; pH 7.4) and preincubated at 37° C. After addition of 0.1 ml of a thrombin solution (10 NIH-U/ml) the coagulation time is determined using a Schnitger and Gross coagulometer. In parallel with the experiment a calibration plot is constructed using reference plasma, from which the particular plasma hirudin or plasma hirudin derivative concentration is read off.
The protein coupling yield is 5 %. The biological activity is determined in vitro as in Example 2. The Sepharose-hirudin is isolated from the treated plasma, washed with a 1 to 1.5 M NaCl solution and again employed in the inhibition assay.

## Sepharose-hirudin: hirudin immobilised on activated CH-Sepharose 4 B (Pharmacia)
  measured activity on re-use in the inhibition assay: within the limit of error of the first measurement
